Measured values: US20220025023A1 (AC IMMUNE, published 2022)
Residue numbers refer to the chain shown, from its start. Where no end group is shown, it is not given here.

T1: TDP-215 peptide (human)
T1 construct: same ELISA method as for the biotinylated 15-mers
T1 peptide: GDVMDVFI

T2: TDP-3 peptide (human)
T2 construct: Irrelevant control peptide; conjugated to Luminex beads in the assay; also called TDP-43 aa 310-370; irrelevant target
T2 peptide: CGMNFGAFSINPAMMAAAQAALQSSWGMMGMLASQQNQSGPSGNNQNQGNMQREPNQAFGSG

T3: TDP-1 peptide (human)
T3 construct: Immunogen peptide; conjugated to Luminex beads in the assay; also called TDP-43 aa 212-272
T3 peptide: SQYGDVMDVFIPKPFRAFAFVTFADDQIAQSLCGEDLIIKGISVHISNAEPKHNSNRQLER

T4: TP-24 peptide (human, also: biotinylated, site not given here)
T4 construct: 15-mer of human TDP-43 from the library spanning aa 199-285; captured on streptavidin plates
T4 peptide: REFFSQYGDVMDVFI

T5: TP-25 peptide (human, also: biotinylated, site not given here)
T5 construct: 15-mer of human TDP-43 from the library spanning aa 199-285; captured on streptavidin plates
T5 peptide: VMDVFIPKPFRAFAF

T6: TP-28 (also: biotinylated, site not given here)
T6 construct: also called TP-28 peptide
T6 peptide: CGEDLIIKGISVHIS

B1: ACI-7062-406E3-Ab1 (antibody, IgG2a, V domains shown)
VH: QVTLKESGPAILQPSQTLSLTCSFSGFSLTTYGIGVGWIRQPSGKGLEWLAHIWWNDNKYYNTALKSRLTVSKDTSNNQVFLKIASVDTADTATYYCARVYGNLYYFAYWGQGTTLTVSS
VL: DVLMTQTPLSLPVSLGDRASISCRSSQSIVHRSGNTYLEWYLQKPGQSPKLLIYKVSNRFSGVPDRFSGSGSGTDFTLKISRVEAEDLGVYYCFQGSHVPTFGAGTKLELKR
notes: also called 406E3D5; clone 5
B2: ACI-7062-406E3-Ab2 (antibody, IgG2a, V domains shown)
VH: B1 VH
VL: B1 VL
notes: also called 406E3G10; clone 6
B3: ACI-7062-416A11-Ab1 (antibody, IgG2a, V domains shown)
VH: B1 VH with A10G, P14S, T30S, V71I, T92A, A108G
VL: B1 VL with R32S, H98R
notes: also called 416A11B3; clone 18
B4: ACI-7062-410H3-Ab1 (antibody, IgG1, V domains shown)
VH: DVQLVESGGGLVQPGGSRRLSCAASGFTFSSFGMHWVRQAPEKGLEWVAYIRSGSDIIYYADSVKGRFTISRDNPENTLFLQMTSLRSEDTAMYYCARSGTTVPFDYWGQGTSLTVSS
VL: DIVMTQSPSSLAMSVGQKVTMSCKSSQSLLNSGNQKNYLAWYQQKPGQSPELLLYFASTRASGVPDRFIGSGSGTDFTLTISSVQAEDLADYFCQQHYSIPLTFGAGTKLELKR
notes: also called 410H3B9; clone 7
B5: ACI-7062-412A7-Ab1 (antibody, IgG2b, V domains shown)
VH: B4 VH
VL: B4 VL
notes: also called 412A7B7; clone 9

Biological target: T1, TDP-215 peptide
Experiment: indirect ELISA, 8-mer peptide library, OD 405 nm
Experimental: (§1) Serum-free supernatants were harvested from stable hybridomas. The supernatants containing antibodies of interest were then screened by an indirect ELISA assay to determine epitopes. Epitopes were mapped using a library of TDP-43 15-mer peptides. Briefly, 96-well streptavidin-coated 96-well ELISA plates were incubated with 5 μg/mL of biotinylated 15-mer peptides spanning the amino acids (aa) 199-285 of human TDP-43 with 9 aa offset and 6 aa overlap. Plates were washed thoroughly with 0.05% Tween-20/PBS and then blocked with 1% bovine serum albumin (BSA) in 0.05% Tween-20/PBS for 1 hour at 37° C. The antibody contained in the hybridoma supernatant was then added at the indicated dilutions, and incubated for 2 hours at 37° C. after which the plates were washed as described previously. An AP-conjugated anti-mouse IgG secondary antibody (Jackson ImmunoResearch Laboratories, United Kingdom) was added at 1/1000 dilution in 0.05% Tween-20/PBS for 1 hour at 37° C. After the final wash, plates were incubated with pNPP (Sigma-Aldrich, Switzerland) an AP substrate solution, and read at 405 nm using an ELISA plate reader (Tecan).
Furthermore, antibodies were tested using an indirect ELISA on a peptide library of 8-mer peptides with 7 aa overlap covering the sequence of human TDP-43 from aa 210 to aa 231, using the same ELISA method as describe previously in this section.

binding result	Binder
binds	B1
binds	B2
binds	B3
binds	B4
binds	B5

Biological target: T2, TDP-3 peptide
Experiment: Luminex bead assay, TDP-3 peptide beads (irrelevant target)

binding result	Binder
no binding	B1
no binding	B2
no binding	B3
no binding	B4
no binding	B5

Biological target: T3, TDP-1 peptide
Experiment: Luminex bead assay, antibody serial dilution, TDP-1 peptide beads

EC50 [nM]	Binder
< 0.01	B1
< 0.01	B2
< 0.01	B3
< 0.01	B4
< 0.01	B5

Biological target: T7, recombinant human full-length TDP-43 (human, UniProt Q13148 1-414)
T7 construct: Recombinant full-length protein; also called FL TDP-43; recFL TDP-43
Experiment: SPR avidity (Biacore T200), TDP-43 monomer immobilised, antibody as analyte, 1:1 model
Experimental: (§2) Avidity measurements were performed on an SPR instrument (Biacore T200, GE Healthcare Life Sciences) using CM5 Series S sensor chips. Recombinant human FL TDP-43 monomers or aggregated recombinant human FL TDP-43 was immobilized on a CM5 chip using amine coupling, injecting at a flow rate of 5 μl/min for 420 seconds. Conditions were optimized so that less than 200 RU protein was immobilized. Binding of the antibodies and the control antibody (2E2-D3) were obtained by injecting at: 1.37, 4.11, 12.33, 37, 111, and 333 nM in 1×PBS P+ at a flow rate of 50 μl/min for 90 s contact time and 600 s dissociation phase, with three regeneration cycles of the ligand surface by 10 mM Glycine-HCl (pH 1.7). Kinetics were analyzed using a 1:1 fitting model (see FIG. 8).

T7 sequence (Q13148 whole entry): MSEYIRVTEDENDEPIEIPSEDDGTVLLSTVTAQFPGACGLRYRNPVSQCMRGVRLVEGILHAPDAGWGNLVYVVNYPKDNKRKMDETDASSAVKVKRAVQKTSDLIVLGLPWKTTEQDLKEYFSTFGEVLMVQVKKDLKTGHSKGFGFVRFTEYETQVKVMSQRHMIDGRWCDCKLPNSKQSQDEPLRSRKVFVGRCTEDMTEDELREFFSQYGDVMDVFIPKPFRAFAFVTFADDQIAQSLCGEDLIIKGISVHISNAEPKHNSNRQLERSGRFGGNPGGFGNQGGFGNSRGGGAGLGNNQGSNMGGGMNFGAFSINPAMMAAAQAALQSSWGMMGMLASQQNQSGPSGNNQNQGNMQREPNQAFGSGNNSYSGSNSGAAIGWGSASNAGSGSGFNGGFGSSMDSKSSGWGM

Kd [nM]	Binder
0.8	B1
0.3	B2
2.4	B3
6	B4
1	B5

Biological target: T4, TP-24 peptide
Experiment: indirect ELISA, biotinylated 15-mer peptide on streptavidin plate, hybridoma supernatant
Experimental: as §1

OD	Binder
3 O.D. (405 nm)	B1
3.4 O.D. (405 nm)	B2
2.9 O.D. (405 nm)	B3
3.8 O.D. (405 nm)	B4
4 O.D. (405 nm)	B5

Biological target: T5, TP-25 peptide
Experiment: as above
Experimental: as §1

OD	Binder
1 O.D. (405 nm)	B1
0.9 O.D. (405 nm)	B2
0.9 O.D. (405 nm)	B3
0.8 O.D. (405 nm)	B4
1.4 O.D. (405 nm)	B5

Biological target: T8, aggregated recombinant human FL TDP-43 (human, UniProt Q13148 1-414)
T8 construct: also called TDP-43 aggregates
Experiment: SPR avidity (Biacore T200), aggregated TDP-43 immobilised, antibody as analyte, 1:1 model
Experimental: as §2

T8 sequence (Q13148 whole entry): as above

Kd [nM]	Binder
0.2	B1
0.4	B2
1.2	B3
19.2	B4
0.3	B5

Biological target: T6, TP-28
Experiment: indirect ELISA, biotinylated 15-mer on streptavidin plate, hybridoma supernatant
Outline: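 Biotinylated 15-mer peptides (5 μg/mL) spanning human TDP-43 aa 199-285 captured on streptavidin plates, blocked with 1% BSA 1 h 37° C. Hybridoma supernatant added at indicated dilutions, 2 h 37° C; AP anti-mouse IgG 1/1000, 1 h 37° C; pNPP read at 405 nm.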

binding result	Binder
no binding	B1
no binding	B2
no binding	B3
no binding	B4
no binding	B5
